Positions count from the first letter of the chain named. In names and notes the source's numbering stands. One block for each binder: values may come before it.
Legend:
Conditions in all cases: both partners purified
FtsQ_(50–276) [1] = target: T1, FtsQ_(50–276) (E. coli, UniProt P06136 50-276); assay: SEC; analytical gel filtration, Superdex 200 10/300 GL, buffer B (20 mM Tris-HCl pH 8.0, 200 mM NaCl), 0.5 mL/min; high concentrations (101–370 μM); apparent Stokes radius compared with radii calculated from models
T1 construct: pET21a; also called periplasmic domain of FtsQ; WT FtsQ; source: for the complexes purified together with its partners from mixed cell pellets

FtsQ_(50–276) [2] = target: T1, FtsQ_(50–276); assay: BLI; BLItz; GST-fused FtsB proteins or GST-e5-FtsB/k5-FtsL complexes immobilised on AR2G biosensor by amine coupling; FtsQ_(50–276) (WT or Y248A) in solution, 0.1–80 μM; running buffer 20 mM Tris-HCl pH 8.0, 200 mM NaCl; equilibrium analysis of points at 100 s
e5-FtsB_(25–103) = target: T2, e5-FtsB_(25–103) (E. coli, UniProt P0A6S5 25-103); assay: SEC; analytical gel filtration, Superdex 200 10/300 GL, buffer B (20 mM Tris-HCl pH 8.0, 200 mM NaCl), 0.5 mL/min; high concentrations (101–370 μM); apparent Stokes radius compared with radii calculated from models
T2 chain: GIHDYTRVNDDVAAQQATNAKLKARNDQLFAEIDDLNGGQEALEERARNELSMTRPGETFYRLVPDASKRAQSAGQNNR

T1 sequence (P06136 50-276): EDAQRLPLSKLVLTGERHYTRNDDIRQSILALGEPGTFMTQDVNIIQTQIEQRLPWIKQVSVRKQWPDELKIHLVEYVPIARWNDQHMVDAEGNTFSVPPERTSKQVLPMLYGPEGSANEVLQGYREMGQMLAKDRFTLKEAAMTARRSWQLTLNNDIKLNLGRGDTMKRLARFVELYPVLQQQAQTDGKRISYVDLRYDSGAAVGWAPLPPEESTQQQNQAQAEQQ

- binding result (FtsQ_(50–276) [1]): binds
B1: FtsB_(25–103) L46P (domain or fragment, E. coli, UniProt P0A6S5 25-103, looked up)
chain: T2 chain with L22P
notes: also called FtsQB L46P mutant

- Kd (FtsQ_(50–276) [2]): 670 nM
B2: GST-fused FtsB_(25–103) (domain or fragment, E. coli, UniProt P0A6S5 25-103, looked up)
chain: T2 chain
notes: pGST2; source: E. coli BL21 (DE3), purified (glutathione-Sepharose, gel filtration); not shown: GST, N-terminal, kept

- Kd (FtsQ_(50–276) [2]): 900 nM
B3: GST-fused FtsB_(61–103) (domain or fragment, E. coli, UniProt P0A6S5 61-103, looked up)
chain: NGGQEALEERARNELSMTRPGETFYRLVPDASKRAQSAGQNNR
notes: as for B2

- stoichiometry N (e5-FtsB_(25–103)): 1 FtsB:FtsL ratio (2:2)
B4: k5-FtsL_(64–121) (domain or fragment)
chain: TAQREQLVLERDALDIEWRNLILEENALGDHSRVERIATEKLQMQHVDPSQENIVVQK

From publication PMC6305486, “Structural Insights into the FtsQ/FtsB/FtsL Complex, a Key Component of the Divisome” (Scientific Reports, 2018)
